Publication PMC3076715
Where two headings read alike, the source gives them in different places.

Columns and labels:
Assay in all cases: fluorescence polarization
M.SssI = M.SssI (UniProt P15840 1-386)
Dnmt3a-CD [1] = biological target: T1, Dnmt3a-CD (murine, UniProt O88508 608-908)
Dnmt3a-CD [2] = biological target: T1, Dnmt3a-CD; remark: listed apart in the source
Dnmt3a-CD [3] = biological target: T1, Dnmt3a-CD; remark: listed apart in the source

T1 sequence (O88508 608-908): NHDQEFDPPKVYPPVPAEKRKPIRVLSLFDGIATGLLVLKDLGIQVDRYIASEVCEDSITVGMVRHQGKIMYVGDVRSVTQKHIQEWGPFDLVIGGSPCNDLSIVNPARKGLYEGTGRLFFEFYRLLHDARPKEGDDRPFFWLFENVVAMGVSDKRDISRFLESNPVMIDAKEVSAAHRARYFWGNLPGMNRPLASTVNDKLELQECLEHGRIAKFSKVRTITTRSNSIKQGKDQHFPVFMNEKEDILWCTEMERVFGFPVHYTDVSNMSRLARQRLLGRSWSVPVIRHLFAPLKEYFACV
M.SssI, sequence (P15840 whole entry): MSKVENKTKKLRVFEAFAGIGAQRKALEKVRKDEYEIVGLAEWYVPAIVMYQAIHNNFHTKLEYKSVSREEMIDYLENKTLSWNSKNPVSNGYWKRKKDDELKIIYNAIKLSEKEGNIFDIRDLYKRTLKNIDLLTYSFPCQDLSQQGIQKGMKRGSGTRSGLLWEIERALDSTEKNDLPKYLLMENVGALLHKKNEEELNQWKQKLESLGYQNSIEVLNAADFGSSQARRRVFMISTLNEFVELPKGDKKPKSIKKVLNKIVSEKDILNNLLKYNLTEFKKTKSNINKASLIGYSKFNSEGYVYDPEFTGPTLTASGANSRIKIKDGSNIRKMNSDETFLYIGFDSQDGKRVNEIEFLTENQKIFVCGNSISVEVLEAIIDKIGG

B1: GCGC/CGCG (dsDNA)
DNA 1: GAGCCAAGCGCACTCTGA
DNA 2: TCAGAGTGCGCTTGGCTC
- binding result (M.SssI): binds
- binding result (Dnmt3a-CD [1]): binds

B2: GCB+C/CGCG (dsDNA)
DNA 1: GAGCCAAGCGCACTCTGA
DNA 2: TCAGAGTGCGCTTGGCTC
modifications: (+)-trans-anti-B[a]PDE-N2-dG at strand 1 position 10
- binding result (Dnmt3a-CD [2]): binds

B3: GCGC/CGMG (dsDNA)
DNA 1: GAGCCAAGCGCACTCTGA
DNA 2: TCAGAGTGCGCTTGGCTC
modifications: 5-methylcytosine at strand 2 position 9
- binding result (Dnmt3a-CD [3]): binds
